Measured values: IntAct's records for PubMed 29892012

B1: Liprin-alpha-1 (Homo sapiens), Q13136 (parent)
chain: MMCEVMPTISEAEGPPGGGGGHGSGSPSQPDADSHFEQLMVSMLEERDRLLDTLRETQETLALTQGKLHEVGHERDSLQRQLNTALPQEFAALTKELNVCREQLLEREEEIAELKAERNNTRLLLEHLECLVSRHERSLRMTVVKRQAQSPAGVSSEVEVLKALKSLFEHHKALDEKVRERLRVALERCSLLEEELGATHKELMILKEQNNQKKTLTDGVLDINHEQENTPSTSGKRSSDGSLSHEEDLAKVIELQEIISKQSREQSQMKERLASLSSHVTELEEDLDTARKDLIKSEEMNTKLQRDVREAMAQKEDMEERITTLEKRYLAAQREATSVHDLNDKLENEIANKDSMHRQTEDKNRQLQERLELAEQKLQQTLRKAETLPEVEAELAQRVAALSKAEERHGNIEERLRQMEAQLEEKNQELQRARQREKMNEEHNKRLSDTVDKLLSESNERLQLHLKERMAALEDKNSLLREVESAKKQLEETQHDKDQLVLNIEALRAELDHMRLRGASLHHGRPHLGSVPDFRFPMADGHTDSYSTSAVLRRPQKGRLAALRDEPSKVQTLNEQDWERAQQASVLANVAQAFESDADVSDGEDDRDTLLSSVDLLSPSGQADAHTLAMMLQEQLDAINKEIRLIQEEKENTEQRAEEIESRVGSGSLDNLGRFRSMSSIPPYPASSLASSSPPGSGRSTPRRIPHSPAREVDRLGVMTLLPPSREEVRDDKTTIKCETSPPSSPRALRLDRLHKGALHTVSHEDIRDIRNSTGSQDGPVSNPSSSNSSQDSLHKAPKKKGIKSSIGRLFGKKEKGRPGQTGKEALGQAGVSETDNSSQDALGLSKLGGQAEKNRKLQKKHELLEEARRQGLPFAQWDGPTVVVWLELWVGMPAWYVAACRANVKSGAIMSALSDTEIQREIGISNPLHRLKLRLAIQEIMSLTSPSAPPTSRTTLAYGDMNHEWIGNEWLPSLGLPQYRSYFMECLVDARMLDHLTKKDLRGQLKMVDSFHRNSFQCGIMCLRRLNYDRKELERKREESQSEIKDVLVWSNDRVIRWILSIGLKEYANNLIESGVHGALLALDETFDFSALALLLQIPTQNTQARAVLEREFNNLLVMGTDRRFDEDDDKSFRRAPSWRKKFRPKDIRGLAAGSAETLPANFRVTSSMSSPSMQPKKMQMDGNVSGTQRLDSATVRTYSC
partner: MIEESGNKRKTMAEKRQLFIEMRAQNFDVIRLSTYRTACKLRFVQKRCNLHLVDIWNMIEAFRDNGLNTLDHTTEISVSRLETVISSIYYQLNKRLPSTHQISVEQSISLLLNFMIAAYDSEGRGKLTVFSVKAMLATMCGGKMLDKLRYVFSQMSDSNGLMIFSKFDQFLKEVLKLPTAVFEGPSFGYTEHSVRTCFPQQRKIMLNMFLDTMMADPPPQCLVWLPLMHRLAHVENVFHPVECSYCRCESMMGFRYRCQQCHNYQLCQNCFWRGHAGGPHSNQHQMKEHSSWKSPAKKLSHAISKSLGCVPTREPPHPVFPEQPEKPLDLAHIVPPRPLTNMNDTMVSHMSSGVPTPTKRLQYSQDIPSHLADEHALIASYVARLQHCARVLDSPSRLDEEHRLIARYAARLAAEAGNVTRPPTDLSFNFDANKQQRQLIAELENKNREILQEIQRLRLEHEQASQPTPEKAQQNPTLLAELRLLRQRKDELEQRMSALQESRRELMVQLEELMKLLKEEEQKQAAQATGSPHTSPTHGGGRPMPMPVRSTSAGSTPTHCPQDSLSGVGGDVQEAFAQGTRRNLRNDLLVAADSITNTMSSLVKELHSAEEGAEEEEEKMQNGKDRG
B2: Myotubularin-related protein 9 (Homo sapiens), Q96QG7 (parent)
chain: MEFAELIKTPRVDNVVLHRPFYPAVEGTLCLTGHHLILSSRQDNTEELWLLHSNIDAIDKRFVGSLGTIIIKCKDFRIIQLDIPGMEECLNIASSIEALSTLDSITLMYPFFYRPMFEVIEDGWHSFLPEQEFELYSSATSEWRLSYVNKEFAVCPSYPPIVTVPKSIDDEALRKVATFRHGGRFPVLSYYHKKNGMVIMRSGQPLTGTNGRRCKEDEKLINATLRAGKRGYIIDTRSLNVAQQTRAKGGGFEQEAHYPQWRRIHKSIERYHILQESLIKLVEACNDQTHNMDRWLSKLEASNWLTHIKEILTTACLAAQCIDREGASILIHGTEGTDSTLQVTSLAQIILEPRSRTIRGFEALIEREWLQAGHPFQQRCAQSAYCNTKQKWEAPVFLLFLDCVWQILRQFPCSFEFNENFLIMLFEHAYASQFGTFLGNNESERCKLKLQQKTMSLWSWVNQPSELSKFTNPLFEANNLVIWPSVAPQSLPLWEGIFLRWNRSSKYLDEAYEEMVNIIEYNKELQAKVNILRRQLAELETEDGMQESP
partner: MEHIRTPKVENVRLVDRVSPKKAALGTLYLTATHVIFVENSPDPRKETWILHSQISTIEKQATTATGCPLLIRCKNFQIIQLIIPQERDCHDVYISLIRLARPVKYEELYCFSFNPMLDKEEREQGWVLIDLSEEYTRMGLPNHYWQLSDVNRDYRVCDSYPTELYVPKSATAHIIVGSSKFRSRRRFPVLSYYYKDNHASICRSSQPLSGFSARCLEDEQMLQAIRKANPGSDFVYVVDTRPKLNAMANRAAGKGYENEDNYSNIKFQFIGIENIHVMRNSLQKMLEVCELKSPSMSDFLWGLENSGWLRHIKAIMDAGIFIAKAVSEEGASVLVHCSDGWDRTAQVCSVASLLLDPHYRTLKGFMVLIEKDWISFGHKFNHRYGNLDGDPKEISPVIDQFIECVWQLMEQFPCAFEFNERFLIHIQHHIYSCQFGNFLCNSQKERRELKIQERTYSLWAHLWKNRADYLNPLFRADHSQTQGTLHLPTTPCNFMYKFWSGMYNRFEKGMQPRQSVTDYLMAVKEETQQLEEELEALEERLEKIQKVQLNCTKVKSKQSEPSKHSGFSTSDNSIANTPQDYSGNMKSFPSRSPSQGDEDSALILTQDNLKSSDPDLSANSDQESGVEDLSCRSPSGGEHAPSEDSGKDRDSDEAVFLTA
B3: Zyxin (Homo sapiens), Q15942 (parent)
chain: MAAPRPSPAISVSVSAPAFYAPQKKFGPVVAPKPKVNPFRPGDSEPPPAPGAQRAQMGRVGEIPPPPPEDFPLPPPPLAGDGDDAEGALGGAFPPPPPPIEESFPPAPLEEEIFPSPPPPPEEEGGPEAPIPPPPQPREKVSSIDLEIDSLSSLLDDMTKNDPFKARVSSGYVPPPVATPFSSKSSTKPAAGGTAPLPPWKSPSSSQPLPQVPAPAQSQTQFHVQPQPQPKPQVQLHVQSQTQPVSLANTQPRGPPASSPAPAPKFSPVTPKFTPVASKFSPGAPGGSGSQPNQKLGHPEALSAGTGSPQPPSFTYAQQREKPRVQEKQHPVPPPAQNQNQVRSPGAPGPLTLKEVEELEQLTQQLMQDMEHPQRQNVAVNELCGRCHQPLARAQPAVRALGQLFHIACFTCHQCAQQLQGQQFYSLEGAPYCEGCYTDTLEKCNTCGEPITDRMLRATGKAYHPHCFTCVVCARPLEGTSFIVDQANRPHCVPDYHKQYAPRCSVCSEPIMPEPGRDETVRVVALDKNFHMKCYKCEDCGKPLSIEADDNGCFPLDGHVLCRKCHTARAQT
partner: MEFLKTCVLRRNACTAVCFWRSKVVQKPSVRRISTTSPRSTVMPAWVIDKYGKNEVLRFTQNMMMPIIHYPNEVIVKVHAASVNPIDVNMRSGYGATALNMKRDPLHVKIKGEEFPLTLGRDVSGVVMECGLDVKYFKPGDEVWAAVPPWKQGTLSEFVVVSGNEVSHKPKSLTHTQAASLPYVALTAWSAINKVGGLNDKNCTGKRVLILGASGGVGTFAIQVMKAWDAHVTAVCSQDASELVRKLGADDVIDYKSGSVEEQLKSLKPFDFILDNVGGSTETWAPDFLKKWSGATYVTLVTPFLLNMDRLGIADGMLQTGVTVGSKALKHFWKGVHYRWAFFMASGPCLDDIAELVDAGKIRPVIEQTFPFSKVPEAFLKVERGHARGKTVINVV
B4: PDZ and LIM domain protein 1 (Homo sapiens), O00151 (parent)
chain: MTTQQIDLQGPGPWGFRLVGGKDFEQPLAISRVTPGSKAALANLCIGDVITAIDGENTSNMTHLEAQNRIKGCTDNLTLTVARSEHKVWSPLVTEEGKRHPYKMNLASEPQEVLHIGSAHNRSAMPFTASPASSTTARVITNQYNNPAGLYSSENISNFNNALESKTAASGVEANSRPLDHAQPPSSLVIDKESEVYKMLQEKQELNEPPKQSTSFLVLQEILESEEKGDPNKPSGFRSVKAPVTKVAASIGNAQKLPMCDKCGTGIVGVFVKLRDRHRHPECYVCTDCGTNLKQKGHFFVEDQIYCEKHARERVTPPEGYEVVTVFPK
B5: Syntaxin-3 (Homo sapiens), Q13277 (parent)
chain: MKDRLEQLKAKQLTQDDDTDAVEIAIDNTAFMDEFFSEIEETRLNIDKISEHVEEAKKLYSIILSAPIPEPKTKDDLEQLTTEIKKRANNVRNKLKSMEKHIEEDEVRSSADLRIRKSQHSVLSRKFVEVMTKYNEAQVDFRERSKGRIQRQLEITGKKTTDEELEEMLESGNPAIFTSGIIDSQISKQALSEIEGRHKDIVRLESSIKELHDMFMDIAMLVENQGEMLDNIELNVMHTVDHVEKARDETKKAVKYQSQARKKLIIIIVLVVVLLGILALIIGLSVGLN
partner: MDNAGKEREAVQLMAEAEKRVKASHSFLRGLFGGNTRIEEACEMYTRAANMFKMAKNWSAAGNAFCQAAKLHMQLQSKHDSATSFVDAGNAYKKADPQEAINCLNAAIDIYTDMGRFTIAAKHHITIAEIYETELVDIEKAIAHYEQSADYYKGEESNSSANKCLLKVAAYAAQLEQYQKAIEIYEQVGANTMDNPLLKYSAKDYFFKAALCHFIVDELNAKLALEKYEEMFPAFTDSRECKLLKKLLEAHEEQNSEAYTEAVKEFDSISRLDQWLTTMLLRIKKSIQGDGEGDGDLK

Variants of: B1
Conditions: with dtnb_human DTNB

effect of a mutation on the interaction	Variant
with no effect	L330F

Variants of: B1
Conditions: with dtnb_human DTNB
Remark: another data set of the same source

effect of a mutation on the interaction	Variant
with no effect	P389L

Variants of: B2
Conditions: with mtmr7_human MTMR7, Q9Y216

effect of a mutation on the interaction	Variant
with no effect	R359S

Variants of: B3
Conditions: with rt4i1_human RTN4IP1, Q8WWV3

effect of a mutation on the interaction	Variant
with no effect	R167G

Variants of: B4
Conditions: with gfap_human GFAP

effect of a mutation on the interaction	Variant
with no effect	A249V

Variants of: B4
Conditions: with actn4_human ACTN4, O43707
Chain of actn4_human ACTN4, O43707 (O43707 whole entry): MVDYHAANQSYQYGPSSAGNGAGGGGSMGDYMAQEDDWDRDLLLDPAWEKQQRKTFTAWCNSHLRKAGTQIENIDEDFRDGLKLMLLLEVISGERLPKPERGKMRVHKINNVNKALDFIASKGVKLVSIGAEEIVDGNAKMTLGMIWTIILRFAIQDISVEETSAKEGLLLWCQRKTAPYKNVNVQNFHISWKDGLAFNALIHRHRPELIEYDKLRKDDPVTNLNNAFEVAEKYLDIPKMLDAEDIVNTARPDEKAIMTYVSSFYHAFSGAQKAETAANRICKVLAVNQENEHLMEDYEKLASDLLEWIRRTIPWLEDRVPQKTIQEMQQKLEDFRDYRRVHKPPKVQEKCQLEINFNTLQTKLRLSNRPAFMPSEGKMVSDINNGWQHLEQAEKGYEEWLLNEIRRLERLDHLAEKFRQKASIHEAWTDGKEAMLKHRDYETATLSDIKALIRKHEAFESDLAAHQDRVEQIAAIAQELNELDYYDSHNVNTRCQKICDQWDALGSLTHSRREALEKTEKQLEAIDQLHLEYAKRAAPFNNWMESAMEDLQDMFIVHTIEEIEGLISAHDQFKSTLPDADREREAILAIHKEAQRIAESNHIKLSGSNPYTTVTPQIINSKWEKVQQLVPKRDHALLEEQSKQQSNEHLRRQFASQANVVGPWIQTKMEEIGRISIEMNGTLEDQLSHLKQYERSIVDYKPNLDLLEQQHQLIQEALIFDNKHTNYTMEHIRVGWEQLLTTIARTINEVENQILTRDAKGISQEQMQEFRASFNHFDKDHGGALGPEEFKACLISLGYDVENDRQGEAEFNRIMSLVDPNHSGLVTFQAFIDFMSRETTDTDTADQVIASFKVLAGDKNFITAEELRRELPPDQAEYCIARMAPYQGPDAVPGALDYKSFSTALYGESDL

effect of a mutation on the interaction	Variant
with no effect	A249V

Variants of: B5
Conditions: with snab_human NAPB

effect of a mutation on the interaction	Variant
disrupting interaction strength	K199E
